Experimental data as given in the nanobody polyreactivity screen of Harvey et al. (2022).

Assay: yeast display, Sf9 membrane polyspecificity reagent, FACS + sequencing; frameworks hold sequencing errors
Outline: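 Nanobodies from a synthetic yeast display library (Saccharomyces cerevisiae BJ5465), induced 36–48 hours with galactose, were stained 1 hour at 4 °C with 10% biotinylated, detergent-solubilized Sf9 membrane reagent, enriched on streptavidin microbeads, then FACS-sorted. Anti-HA (expression) and streptavidin (reagent binding) fluorescence set low and high (top ~1%) gates. Polyreactivity labels come from the gate of origin. Genes were colony-PCR amplified, MiSeq 2 × 250 sequenced and filtered by CDR length.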

Row | Sequence | polyreactivity (PSR sort gate)
1 | QVHLQESGGGLMQAGGSQRLSSAASGSISYYSDMGWYRQAPGKEREFVAGIGYGTTTNYADSVKGRFTTSRDNGKNTVYLQMSSMKPEDTAVYYCAAYQGNGYEFYYWGQGTQVTVRS | low polyreactivity
2 | QVQLVESGGGLVQAGGSLRLSCAASGSIFSTNAMGCYIQAPGKERELVAVITGIGGITYYADSVKGRFTISRDNAKNTVYVQMNSLKPEDTAVYYCAADPISEFYWGVKDRYDYWGQGTQVTVST | low polyreactivity
3 | QVQLVESGGGLVQAGGSLRLSCAASGYIFAAYTMGWYRQAPGKEREFVAAITRSGGSTYYADSVKWRFTISRDNAKNTVYLQMNSLKPEDTAVYYCAARRWRYFPDYDYWGQGTQVTVSS | high polyreactivity
4 | QVQLVESVGGLGQAGGSLRLSCAASGSTFAGYTMGWYRQAPGKERELVAANTSRGGRTYYADSVKGRFTISRDNAKNTVYIQMNSLKPEDTAVYYCAAVSRYYAELMYYWGQGTQVTVSS | high polyreactivity
5 | QVQLVESGGGLVQAGGSLRLSCAASGRTIRWNAMGWYRQAPGKERELVGAIDSVDNTYYADSVKGRFTISRYNAKNTVYLQMNSLKPEDTGVYYCARDPYWQVQMDYWGQGTQVTVSS | low polyreactivity
6 | QVQLVESGGGIVQAGGSLRLSCAASGSTFVGNAMGWSRQAPGKERELVAAISRTGGSTYYADSVKGRFTISRDNEKNTVYLQMNSLIPEDSAVYYCNAYTRYSSRRGIGDSWGQGTQVTVSS | high polyreactivity
7 | QVQLVESGGGLVQAGGSLRLSCAASGLTFVYYAMGWFRQAPGKERELVAAISRGGTTYYADSVKGRFTISRDNAKNTVYLQMNSLKPEETAVYYCNAARYGFGSAYDYWGQGTQGTVSS | high polyreactivity
8 | QVQLVESGGCLVQAGGSLRLTCAASGRIFRGNVMGWYRQAPGKERELVAAISGRGGNTYYADSVKGRFTISRDNAKNTVYLQMNSLKPEDTAVYYCAATRKDDYQYGYWGQGTQVTVSS | high polyreactivity
9 | QVQLVESGGGLVQAGGSLRLSCAASGSIFRKYAMGWYRQAPGKERELVARISSGGRTYYADSVKGRFTISRDNAKNTVYLQMNSLKPEDTAVYFCAAAYYQRGRYSWGQGSQVTVSS | high polyreactivity
10 | QVQLVESGGGLVQAGGSLRLSCAASGSTFRLNAMGWYRQAPGKERELVAAISWTGGSTYYADSVKGRFTISRDNAKNTVSLQMNSLKPEDSAVYYCATVSYYDRYDYDYWGQGTQVTVSS | low polyreactivity
11 | QVQLVESGGGLVQAGGSLRLSCAASGSIFEANDMGWYRQAPGKERELVAAIDANTGSTYYADSVKGRFTISRDNAKNTVYLQMNSLKPEDTAVYYCNAQVYLHTAYDYWGQGTQVTVSS | low polyreactivity
12 | QVQLVESGGGLVQAGGSLRLSCAASGRIFSENAMGWYRQAPGKERELVAAITGNGGDTYYADSVKGRFTISRDNAKNTVYLQMNSLKPEDTAVYYCAAETGGLGGDYWGQGTQVTVSS | low polyreactivity
13 | QVQLVESGGGLVQEGGSLRLSCSDSGRILRRYTMGWYRQAPGKERELVAAISSGGNTYYADSVKGRFTISRDNAKNTVYLQMNSLKPEDTGVDYCAARVRRYWEYDYWGKGTQVTVSS | low polyreactivity
14 | QVQLVESGGGLVQAGGSLRLSCAASGHIFLGNVMGWYRQAPGKERELVAAISKRGGRTYYADSVKGRFTISRDNAKNTVYLQMNSLKPEDTAVYYCAAVIDSREEYWGQGTQVTVSS | high polyreactivity
15 | QVQLVESGGGLVQAGGSLRLSLAASGSIFARYAMGWYRQAPGKERELVAAITYTGGRTYYADSVKGRFTISSDYAKNTVYLKMNSLKPEDTAVFYCAKDGQATVRRGYDYWGQGTQVTVSS | high polyreactivity
16 | QVQLVESGGGLVQAGGSLRLSCAASGSIFADYTMGWYRQAPGKEREVVAAITSGGSTYYADSVKGRFTISRDNAKNTVYLQMNSLKPEDTAVYYCAAYYGGRGYWGQGTQVTVSS | low polyreactivity
17 | QVQLVESGGGLVQAGGSLLLSCAASGRTFNYIAMGWYRQAPGKERELVAAISQGGGSTYYADSVKGRFTISRDNAKNTVYLQMNSLKPEVTAVSYFAADTWWYGKYDYWGQGTQVTVSS | low polyreactivity
18 | QVQLVESGGGLVQAGGSLRLSCAASGSTLRGNAMGWYRPAPGKERELVAAITGRGTRTYYADSVKGRFTISRDNAKNTVYLQMNSLKPEDTAVYYCAAKGRLYPGWEYYYWGQGTQVTVSS | high polyreactivity
19 | QVQLVESGGGLVQAGGSLRLSCAASGNTFADYAMGWYSQAPGKERELVADLTFSGGGTYYADSVKGRFTISRDNAKNTVYLQMNSLKPEDTPVYDCNADLDSYVGDEYDHWGQGTQVTVSS | low polyreactivity
20 | QVQLVESGAGLVQAGGSLRLSCAASGSIFSPYDMGWYRPAPGKERELVAAISRSGRTHYADSVKGRFTISRDNAKNTVYLQMNSLKPEDTAVYYCAAGVVSGYYYWGHGTQVTVSS | high polyreactivity
21 | QVQLVESGGGLVQAGGSLRLSCADSGSTFYGNVMGWYRQAPGKERELVAAITRGGTTNYADSVKGRFTISRDNAKNTVYLQMNSLKPEDTAVYYCAKASYWVQASNDYWGQGTQVTVSS | low polyreactivity
22 | QVQLVDSGGGLVQAGGSLRLSCAASGFTFWRYVMGWYRQAPGKERELVAAISGRGSRTFYADSVKGRFTISRDNAKNTVYLQMNSLKPEDTAVYYCNAYPGTSGTLYVTPYDYWGQGSQVTVSS | high polyreactivity

Row | Sequence | polyreactivity (PSR sort gate)
23 | QVQLVESGGGLVQAGGSLRLSCAASGRTFPIYAMGWYRQAPGKERELVAAITGGGSTNYADSVKGRFTISRDNAKNTVYLQMNSLKPEDTAVYYCNARWFWYRPGGSRVDYWGQGTHVTVSS | high polyreactivity
24 | QVQLVESGGGLVQAGGSLRLSCAASGFTLARNAMVWYRQAPGKERELVAANSWSGGTTYYADSVKGSFTISRDNAKNTVYLQMNSLKPEDTAVYYCNTASWRAQYYYWGQGNQVTVSS | high polyreactivity
25 | QVQLVESGGGLVQAGGSLRLSCPASGSIYASNTMGWYRQAPGKERELVSGITKIGSSTYYADSVKRRFTISRDNAKNTVYLQMNSLKPEDTAVYYCNAYGPTIYSSRYDYWGQGTQVTVSS | low polyreactivity
26 | QVQLVESGGGLVQAGGSLRLSCAASGSIFAWYGMGWYRQAPGKERELVAAITSTGSTYYADSVKGRFTISRDNAKNTVYLQMNSLKPEDTAVYDCNAYSVYLWRPGDYWGLGTQVTVSS | low polyreactivity
27 | QVHLVESGGGLVQAGGSLRLSCAASGRIFYGYAMGWYRQAPWKEREFVAAITWRGGTFYADSVKGRFTISRDNAKNTVYLQMNSLKPEDTAVYYCAARVSSYGRYDYWGQGTQVTVSS | high polyreactivity
28 | QVQLVESGGGLVQAGGSLRLSCAASGRNFHRYAMGWYRQAPGKERELVATIRSGGGTYYADSVKGRFTISRDNAKNTVYLQMNSLKPEDTAVYDCNAQSSYSYFSGYDYWGQGTQVTVSS | low polyreactivity
29 | QVQLVESGGGLVQAGGSLRLSCAASGFTLYYYTMGWYRQAPGKERELVAAITSGGDTYYADSVKGRFTISRDNAKNTVYLQMNSLKPEDTAVYYCDAKKKYHYVASYKRFEYWGQGTQVTVSS | low polyreactivity
30 | QVQLVESAGGLVQEGGSLRLSCAASVIFWANVMGWYRQAPGKEWELVDAITSGGSTNYADSVKGRFTISRDNAKNTVYLQMNSLKPEDTAVYYCIKPWYSYRYGGVGYGYWGQGTQVTVSS | low polyreactivity
31 | QGQLVESGGGLVQAGGSLRLSCAASGRIFQMYTMGWYRQAPGKERELDAAITSGTSTSYADSVKGRFTISRDNAKNPFYLQMNSLKPEDTAVYYCNKGSVCYSSVFVPYESDYWGQGTQVTVSS | low polyreactivity
32 | QVQLVESGGGLVQAGGSLRLSCAASGLTFIPNAMGWYRQAPGKERELVAAISGTGGSTYYADSVKGRFTISRDNAKNTVYLQMNSLKPEDTAVFYCAARAYLGYYSWGQGTQVTVSS | high polyreactivity
33 | QVQLVESGGGLVQAGGSLRLSCADSGRIFATNAMGWYRHAPGKERELVATITRSAGRTYYADSVKGRFTISRDNAKNTVYLQMNSLKPEDTAVYYCAASYWDTERGYREYDYWGQGTQVTVSS | low polyreactivity
34 | QVQLVESGGGLVQAGGSLRLSCAASGYTFYFYAMGWSRQAPGKERELVAAITGGGTTSYADSVKGRFTISRDNAKNTVYLQMNSLKPEDTAVYYCNVLFADKSDYWGQGSQVTVSS | low polyreactivity
35 | QVQLVESGGGLVQAGGSLRLSCAASGFIFKSYAMGWYRQAPGKERELVAAISGRGGSTYYADSVKGRFTISRDNAKNTVYLQMNSLKPEDPAVYYCNVGPSTYYQYDYWGQGTQVTVSS | high polyreactivity
36 | QVQLVESGGGLVQAGGSLRLSCAASGRIFRAYAMGWYRQAPGKERELVAAIRGRGGSTYADSVKGRFTISRDNAKNTVYLQMNSLKPEDTAVYYCAAGYYRYAWPYYGGRDYWGQGTQVTVSS | high polyreactivity
37 | QVQLVESGGGLVQAGGSLRLSCAASGITFYLYAMGWYRQAPGKERELVAAISGRGGITYYADSVKGRFTISRDNAKNTVYLQMNSLKPEDTAVYYCAAGKLIWGQGTQVTVSS | high polyreactivity
38 | QVKLVESAGGLVQAGGSLRLSCPASGSTFPKYPMGWSRQEPGKERELVAAITWRGGSTYYADSVKGRFTISRDNAKNTVYLQMISLNPEDTAVYYCAAVPYYPSRMDYWGQGTQVTVSS | low polyreactivity
39 | QVQLLESVGGLDQAGGSLRLSCAASGRTFKVYAMGWYRKATVKERELVAAISFSGGTTYYADSVKGRFTISRDNAKNTVYLQMNSLKQEDTAVSYCAAKRYGEYRARGYYYWGQGTQVTVSS | high polyreactivity
40 | QDQLVESGVGLDQAGVSLRLSCAASGRTFKGNAMGWYSQATGKESELVAVITGSGGSTYYADSVKGRFTISRDNAKNTVYLQMTSLKPEDTAVYYCNKTLQRRSWYDYWGQGTQVTVSS | low polyreactivity
41 | QVQLVESGGGLVQAGGSLRLSSAASGLTFSDYAMAWYRQAPGKERELVAGISSGGSTYYADSVKGRFTISRDNAKNTVYLQMNSLKPEDTAVYYCAATRYNRWPIKFDYWVQGTQVTVSS | high polyreactivity
42 | QVQLVESGGGFVQAGGSLRLSCAASGLTFWPYVMGWYRQAPGKERELVAAIDDTGITYYADSVKGRFTISRDNAKNTVYLQMNSLKPEDTAVYYCATDWDYYFPWIYPSDAGPEDGYWGQGTQVTVSS | low polyreactivity
43 | QVQLVESGGGLVQAGGSLRLSCAASGFIFTPYAMGWYRQAPGKERELVAAISKSGADTFYADSVKGRFTISRDNAKNTVYLQMNSLKPEDTAVYYCAADDYWGYDYWGQGTQVTVSS | high polyreactivity
